According to patent publication US20230242903A1:

How the values were obtained:
Assay in all cases: cell-based or functional assay
Halo-LMO2 (human) = Halo-LMO2 (human) (UniProt P25791)
Halo-TAL1(F238D) (human) = Halo-TAL1(F238D) (human) (UniProt P17542)
Halo-LYL1 (human) = Halo-LYL1 (human) (UniProt P12980)
Halo-TAL1 (human) = Halo-TAL1 (human) (UniProt P17542)
Halo-LYL1(F201D) (human) = Halo-LYL1(F201D) (human) (UniProt P12980)

UniProt P25791, sequence (P25791 whole entry): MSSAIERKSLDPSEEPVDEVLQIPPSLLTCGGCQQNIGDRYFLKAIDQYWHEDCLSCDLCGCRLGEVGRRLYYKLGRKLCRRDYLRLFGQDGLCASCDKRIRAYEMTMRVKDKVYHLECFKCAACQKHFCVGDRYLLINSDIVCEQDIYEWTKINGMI

Row | Halo-LMO2 t1/2, HaloLife pulse chase in Jurkat cells (6.6 hours without co-expression) (Halo-LMO2 (human)) | Halo-TAL1(F238D) t1/2 with HA-LDB1 co-expressed, HaloLife assay (Halo-TAL1(F238D) (human)) | Halo-LYL1 t1/2 with HA-LDB1 co-expressed in the presence of LMO2, HaloLife assay (Halo-LYL1 (human)) | Halo-TAL1 t1/2 with HA-LDB1 co-expressed in the presence of LMO2, HaloLife assay (Halo-TAL1 (human)) | Halo-LYL1(F201D) t1/2 with HA-LDB1 co-expressed, HaloLife assay (Halo-LYL1(F201D) (human)) | Substance
1 | 4 h | – | – | – | – | HA-LDB1ΔLID (from UniProt Q86U70 1-375)
2 | 20.6 h | 10.7 h | 20.5 h | 19.9 h | 3.7 h | HA-LDB1 (from UniProt Q86U70 1-375)
